How the values were obtained:
LIG1 full-length [1] = target: T1, LIG1 full-length (human, UniProt P18858 1-919); assay: BLI; no Mg2+ listed in buffer; 1 mM HEPES pH 7.4, 20 mM NaCl, 0.02% BSA, 0.002% Tween 20 (BLI, C-Trap, TIRF; TIRF plus oxygen scavenger and 10 mM Trolox); BLI sensors hydrated at 20 C, assay; conditions: protein: recombinant; tags: 6xHis (pET-24b); AF488 or Cy5 labelled for single-molecule assays; Methods says 3'); nicked duplex
LIG1 C-terminal = LIG1 C-terminal (human, UniProt P18858 261-919, del1-260); assay: as above; conditions: protein: recombinant; tags: 6xHis (pET-24b); AF488 or Cy5 labelled for single-molecule assays; Methods says 3'); nicked duplex
LIG1 C-terminal, sequence (P18858 261-919, stated change not applied): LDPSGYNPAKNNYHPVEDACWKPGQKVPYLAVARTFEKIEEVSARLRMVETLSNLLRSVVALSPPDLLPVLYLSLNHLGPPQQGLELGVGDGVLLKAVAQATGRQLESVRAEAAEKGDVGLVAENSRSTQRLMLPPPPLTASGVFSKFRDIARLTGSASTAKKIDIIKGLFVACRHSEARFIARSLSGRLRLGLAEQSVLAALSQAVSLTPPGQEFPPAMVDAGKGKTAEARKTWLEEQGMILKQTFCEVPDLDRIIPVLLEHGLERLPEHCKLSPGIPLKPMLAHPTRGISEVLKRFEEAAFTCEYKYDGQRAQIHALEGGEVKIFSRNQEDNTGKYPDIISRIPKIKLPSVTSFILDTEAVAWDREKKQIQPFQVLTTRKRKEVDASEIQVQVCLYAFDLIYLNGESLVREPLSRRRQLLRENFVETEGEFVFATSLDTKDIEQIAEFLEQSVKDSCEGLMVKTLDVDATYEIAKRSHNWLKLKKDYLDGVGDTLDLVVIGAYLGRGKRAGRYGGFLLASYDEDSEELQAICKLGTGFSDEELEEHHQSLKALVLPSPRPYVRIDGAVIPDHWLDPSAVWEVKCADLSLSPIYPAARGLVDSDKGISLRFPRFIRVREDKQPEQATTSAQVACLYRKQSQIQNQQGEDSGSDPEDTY

LIG1 full-length [2] = target: T1, LIG1 full-length; assay: single-molecule TIRF; no Mg2+; bound lifetimes 0.9 s (70%), 8 s (30%); unbound 42 s; 1 mM HEPES pH 7.4, 20 mM NaCl, 0.02% BSA, 0.002% Tween 20 (BLI, C-Trap, TIRF; TIRF plus oxygen scavenger and 10 mM Trolox); BLI sensors hydrated at 20 C, assay; conditions: protein: recombinant; tags: 6xHis (pET-24b); AF488 or Cy5 labelled for single-molecule assays; label: 5'-biotin on Up; 3'-AF488 on Down; nicked duplex, blunt; nick between 18-nt Up and 16-nt Down on 34-nt template

T1 sequence (P18858 whole entry): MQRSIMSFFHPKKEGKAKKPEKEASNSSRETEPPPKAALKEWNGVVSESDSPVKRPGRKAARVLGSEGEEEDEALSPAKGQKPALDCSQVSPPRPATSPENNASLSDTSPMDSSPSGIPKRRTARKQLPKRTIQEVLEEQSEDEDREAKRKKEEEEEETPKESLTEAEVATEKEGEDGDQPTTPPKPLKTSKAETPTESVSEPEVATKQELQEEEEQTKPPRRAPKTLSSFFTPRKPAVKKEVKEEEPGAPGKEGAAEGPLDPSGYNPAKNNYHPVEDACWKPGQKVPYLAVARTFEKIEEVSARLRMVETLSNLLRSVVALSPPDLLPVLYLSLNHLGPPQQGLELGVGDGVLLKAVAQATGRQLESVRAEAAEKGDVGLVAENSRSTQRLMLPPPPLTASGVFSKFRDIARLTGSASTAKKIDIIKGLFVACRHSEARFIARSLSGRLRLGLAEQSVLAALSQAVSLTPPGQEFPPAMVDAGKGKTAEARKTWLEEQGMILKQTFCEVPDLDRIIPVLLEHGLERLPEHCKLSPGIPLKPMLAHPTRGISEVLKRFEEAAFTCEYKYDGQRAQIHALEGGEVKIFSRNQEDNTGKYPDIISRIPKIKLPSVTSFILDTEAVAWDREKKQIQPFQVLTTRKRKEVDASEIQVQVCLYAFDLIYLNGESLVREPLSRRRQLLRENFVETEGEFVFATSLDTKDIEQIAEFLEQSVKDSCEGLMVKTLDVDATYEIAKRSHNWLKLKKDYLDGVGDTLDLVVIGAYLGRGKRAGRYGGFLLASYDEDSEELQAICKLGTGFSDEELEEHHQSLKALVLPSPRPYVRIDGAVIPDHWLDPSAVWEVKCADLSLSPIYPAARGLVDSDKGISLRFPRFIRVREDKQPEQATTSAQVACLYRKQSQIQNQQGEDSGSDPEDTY

Binder	Kd (LIG1 full-length [1]) [nM]	Kd (LIG1 C-terminal) [nM]	binding result (LIG1 full-length [2])
nick DNA 3'-dG:C/5'-Bio (BLI) (dsDNA, single nick) DNA 1: CATGGGCGGCATGAACCGGAGGCCCATCCTCACC DNA 2: GGTGAGGATGGGCCTCCGGTTCATGCCGCCCATG	95	196	–
34-mer single-nick DNA (Up-OH + Down / Template T) (dsDNA, 5'-phosphate on Down; 3'-OH at nick) DNA 1: CATGGGCGGCATGAACCA DNA 2: GAGGCCCATCCTCACC DNA 3: GGTGAGGATGGGCCTCTGGTTCATGCCGCCCATG	–	–	binds
